Data on three substances can be found in article PMC9064305.

Sequence of Recombinant human ADAMTS6-S4TSR (residues 717-1117) (Q9UKP5 717-1117): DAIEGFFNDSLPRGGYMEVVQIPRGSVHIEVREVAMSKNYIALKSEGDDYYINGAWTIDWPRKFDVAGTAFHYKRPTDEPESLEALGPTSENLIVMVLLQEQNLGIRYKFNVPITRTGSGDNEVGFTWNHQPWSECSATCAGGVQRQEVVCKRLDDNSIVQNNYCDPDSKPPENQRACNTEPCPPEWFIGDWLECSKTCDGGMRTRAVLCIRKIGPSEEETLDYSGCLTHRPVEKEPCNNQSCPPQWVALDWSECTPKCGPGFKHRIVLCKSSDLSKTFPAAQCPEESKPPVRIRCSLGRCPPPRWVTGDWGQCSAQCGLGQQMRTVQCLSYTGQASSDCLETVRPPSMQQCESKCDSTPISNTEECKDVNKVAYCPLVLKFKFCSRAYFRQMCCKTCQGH
Sequence of Recombinant human ADAMTS6-4TSR (residues 840-1117) (Q9UKP5 840-1117): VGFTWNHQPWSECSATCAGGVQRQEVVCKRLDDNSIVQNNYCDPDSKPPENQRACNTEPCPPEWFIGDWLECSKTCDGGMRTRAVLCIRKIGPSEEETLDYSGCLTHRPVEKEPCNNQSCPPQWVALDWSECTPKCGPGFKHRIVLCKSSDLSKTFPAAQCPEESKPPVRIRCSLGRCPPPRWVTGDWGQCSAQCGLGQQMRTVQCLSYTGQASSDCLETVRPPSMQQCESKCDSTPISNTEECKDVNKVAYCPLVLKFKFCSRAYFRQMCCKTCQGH
Sequence of Recombinant human ADAMTS6-Ct (residues 558-1117) (Q9UKP5 558-1117): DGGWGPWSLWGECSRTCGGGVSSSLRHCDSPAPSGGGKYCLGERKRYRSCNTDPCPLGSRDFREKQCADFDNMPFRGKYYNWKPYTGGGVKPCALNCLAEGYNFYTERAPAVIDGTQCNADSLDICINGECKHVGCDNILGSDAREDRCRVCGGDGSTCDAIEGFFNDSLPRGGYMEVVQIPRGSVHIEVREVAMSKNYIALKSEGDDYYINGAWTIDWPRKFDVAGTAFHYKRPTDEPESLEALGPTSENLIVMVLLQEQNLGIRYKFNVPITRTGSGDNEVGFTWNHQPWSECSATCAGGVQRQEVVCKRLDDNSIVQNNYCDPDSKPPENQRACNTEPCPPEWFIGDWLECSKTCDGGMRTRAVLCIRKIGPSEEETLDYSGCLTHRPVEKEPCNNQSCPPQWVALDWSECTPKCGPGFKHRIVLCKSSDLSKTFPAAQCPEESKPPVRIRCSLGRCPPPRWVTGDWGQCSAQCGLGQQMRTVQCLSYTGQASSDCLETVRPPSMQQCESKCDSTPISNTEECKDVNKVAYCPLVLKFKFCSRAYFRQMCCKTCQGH

The experiment deals with Human fibrillin-2 recombinant C-terminal half (rFBN2-C) (human) (UniProt P35556). Nature of the experiment: SPR; FBN2-Ct amine-coupled to a CM5 chip (1700 RU), ADAMTS6 constructs as analytes; Biacore 3000, 25 °C, 10 mM Hepes pH 7.4, 0.15 M NaCl, 2 mM CaCl2, 0.005% or 0.05% P20, 30 μl/min; steady state affinity method. In general terms: Surface plasmon resonance follows binding to a sensor surface in real time, without labels.
As to “Recombinant human ADAMTS6-4TSR (residues 840-1117) (from UniProt Q9UKP5 840-1117) (domain or fragment)”, the dissociation constant (Kd) (usually the equilibrium constant for the complex coming apart) is 122 nM. With “Recombinant human ADAMTS6-Ct (residues 558-1117) (from UniProt Q9UKP5 558-1117) (domain or fragment)” the figure was 436 nM. For “Recombinant human ADAMTS6-S4TSR (residues 717-1117) (from UniProt Q9UKP5 717-1117) (domain or fragment)”, the equilibrium dissociation constant (Kd) came to 114 nM.
